We go through 20 molecules from PMC9352680, “A comprehensive thermodynamic model for RNA binding by the Saccharomyces cerevisiae Pumilio protein PUF4”.

The labels stand for the following.
B1: Ic_S4_P4E.1_K4.1_C4.1_H4.1_A4.1_[T5C]_[A6C]_[T7G]_F4.1_[T8C]_[A9T]_T4.1 (ssRNA)
RNA: UUUGACAACUGAUCGUUCUUUCUUGUACCGCUUUCUUUCUCGAUCAGUUGUCUUU
B2: Ic_S4_P4E.1_K4.1_C4.1_H4.1_A4.1_[T5C]_[A6C]_[T7C]_F4.1_[T8G]_[A9C]_T4.1 (ssRNA)
RNA: UUUGACAACUGAUCGUUCUUUCUUGUACCCGCUUCUUUCUCGAUCAGUUGUCUUU
B3: Ic_S4_P4E.1_K4.1_C4.1_H4.1_A4.1_[T5C]_[A6C]_[T7C]_F4.1_[T8C]_[A9G]_T4.1 (ssRNA)
RNA: UUUGACAACUGAUCGUUCUUUCUUGUACCCCGUUCUUUCUCGAUCAGUUGUCUUU
B4: Ic_S4_P4E.1_K4.1_C4.1_H4.1_A4.1_[T5C]_[A6C]_[T7C]_F4.1_[T8G]_[A9G]_T4.1 (ssRNA)
RNA: UUUGACAACUGAUCGUUCUUUCUUGUACCCGGUUCUUUCUCGAUCAGUUGUCUUU
B5: Ic_S4_P4E.1_K4.1_C4.1_H4.1_A4.1_[T5C]_[A6C]_F4.1_[T8C]_[A9C]_T4.1 (ssRNA)
RNA: UUUGACAACUGAUCGUUCUUUCUUGUACCUCCUUCUUUCUCGAUCAGUUGUCUUU
B6: Ic_S4_P4E.1_K4.1_C4.1_H4.1_A4.1_[T5C]_[A6C]_[T7A]_F4.1_T4.1 (ssRNA)
RNA: UUUGACAACUGAUCGUUCUUUCUUGUACCAUAUUCUUUCUCGAUCAGUUGUCUUU
B7: Ic_S4_P4E.1_K4.1_C4.1_H4.1_A4.1_[T5C]_[A6C]_[T7C]_F4.1_[A9C]_T4.1 (ssRNA)
RNA: UUUGACAACUGAUCGUUCUUUCUUGUACCCUCUUCUUUCUCGAUCAGUUGUCUUU
B8: Ic_S4_P4E.1_K4.1_C4.1_H4.1_A4.1_[T5C]_[A6C]_[T7C]_F4.1_[T8A]_[A9C]_T4.1 (ssRNA)
RNA: UUUGACAACUGAUCGUUCUUUCUUGUACCCACUUCUUUCUCGAUCAGUUGUCUUU
B9: Ic_S4_P4E.1_K4.1_C4.1_H4.1_A4.1_[T5C]_[A6C]_[T7A]_F4.1_[T8C]_[A9T]_T4.1 (ssRNA)
RNA: UUUGACAACUGAUCGUUCUUUCUUGUACCACUUUCUUUCUCGAUCAGUUGUCUUU
B10: Ic_S4_P4E.1_K4.1_C4.1_H4.1_A4.1_[T5C]_[A6C]_[T7A]_F4.1_[T8C]_T4.1 (ssRNA)
RNA: UUUGACAACUGAUCGUUCUUUCUUGUACCACAUUCUUUCUCGAUCAGUUGUCUUU
B11: Ic_S4_P4E.1_K4.1_C4.1_H4.1_A4.1_[T5C]_[A6C]_[T7A]_F4.1_[T8A]_[A9T]_T4.1 (ssRNA)
RNA: UUUGACAACUGAUCGUUCUUUCUUGUACCAAUUUCUUUCUCGAUCAGUUGUCUUU
B12: Ic_S4_P4E.1_K4.1_C4.1_H4.1_A4.1_[T5C]_[A6C]_F4.1_[T8A]_[A9T]_T4.1 (ssRNA)
RNA: UUUGACAACUGAUCGUUCUUUCUUGUACCUAUUUCUUUCUCGAUCAGUUGUCUUU
B13: Ic_S4_P4E.1_K4.1_C4.1_H4.1_A4.1_[T5C]_[A6C]_F4.1_[T8G]_[A9G]_T4.1 (ssRNA)
RNA: UUUGACAACUGAUCGUUCUUUCUUGUACCUGGUUCUUUCUCGAUCAGUUGUCUUU
B14: Ic_S4_P4E.1_K4.1_C4.1_H4.1_A4.1_[T5C]_[A6C]_F4.1_[T8A]_[A9C]_T4.1 (ssRNA)
RNA: UUUGACAACUGAUCGUUCUUUCUUGUACCUACUUCUUUCUCGAUCAGUUGUCUUU
B15: Ic_S4_P4E.1_K4.1_C4.1_H4.1_A4.1_[T5C]_[A6C]_[T7A]_F4.1_[A9C]_T4.1 (ssRNA)
RNA: UUUGACAACUGAUCGUUCUUUCUUGUACCAUCUUCUUUCUCGAUCAGUUGUCUUU
B16: Ic_S4_P4E.1_K4.1_C4.1_H4.1_A4.1_[T5C]_[A6C]_[T7G]_F4.1_[A9T]_T4.1 (ssRNA)
RNA: UUUGACAACUGAUCGUUCUUUCUUGUACCGUUUUCUUUCUCGAUCAGUUGUCUUU
B17: Ic_S4_P4E.1_K4.1_C4.1_H4.1_A4.1_[T5C]_[A6C]_[T7A]_F4.1_[A9T]_T4.1 (ssRNA)
RNA: UUUGACAACUGAUCGUUCUUUCUUGUACCAUUUUCUUUCUCGAUCAGUUGUCUUU
B18: Ic_S4_P4E.1_K4.1_C4.1_H4.1_A4.1_[T5C]_[A6C]_F4.1_[T8G]_[A9C]_T4.1 (ssRNA)
RNA: UUUGACAACUGAUCGUUCUUUCUUGUACCUGCUUCUUUCUCGAUCAGUUGUCUUU
B19: Ib_S1_P4E.1_K4.1_C4.1_H4.1_A4.1_[T5A]_F4.1_[T8G]_T4.1 (ssRNA)
RNA: UCUCUUUGUAAAUGAUCUCUU
B20: Ic_S1_P4E.1_K4.1_C4.1_H4.1_A4.1_[T5C]_F4.1_[T8C]_T4.1 (ssRNA)
RNA: UCUCUUUGUACAUCAUCUCUU

In the series the target is T1, PUF4 RNA-binding domain (Saccharomyces cerevisiae, UniProt P25339 537-888).
T1 sequence: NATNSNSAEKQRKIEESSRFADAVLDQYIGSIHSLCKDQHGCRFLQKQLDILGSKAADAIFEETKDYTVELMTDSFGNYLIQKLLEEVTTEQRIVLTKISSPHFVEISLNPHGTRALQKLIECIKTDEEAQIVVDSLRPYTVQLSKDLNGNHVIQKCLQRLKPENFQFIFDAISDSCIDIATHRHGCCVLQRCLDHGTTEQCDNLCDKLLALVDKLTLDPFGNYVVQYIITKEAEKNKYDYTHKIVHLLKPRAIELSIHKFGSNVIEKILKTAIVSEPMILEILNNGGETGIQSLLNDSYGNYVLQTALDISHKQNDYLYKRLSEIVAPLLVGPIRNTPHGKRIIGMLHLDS
Nature of the series: Mg; RNA-MaP; 20 mM Na-HEPES pH 7.4, 30 mM KOAc, 0.75 mM MgCl2, 0.1% Tween-20, 5% glycerol, 0.1 mg/mL BSA, 2 mM DTT; 25 C; 0.0125-409.6 nM protein. The note with it: tags: N-His6-TEV cleaved; C-SNAP kept, Cy3B-labelled; label: tethered on chip by stalled RNA polymerase.
In general, Kd refers to the free concentration of one partner at which half of the binding sites on the other are occupied at equilibrium, for simple one-to-one binding. The low end stands for higher affinity, the high end for lower affinity. Take B1: the Kd was 150 nM.

Turning to B2, the Kd is 1190 nM.

The molecule B3 yielded a Kd of 642 nM.

With B4, the affinity, expressed as Kd, was 1370 nM.

For the molecule B5, binding was put at a Kd of 91.4 nM.

B6: the Kd worked out at 0.476 nM.

B7: binding was characterised by a dissociation constant (Kd) of 31.2 nM.

On to B8, for which the affinity, expressed as Kd, was 1090 nM.

Take B9: the Kd amounted to 47.1 nM.

Consider B10, for which the Kd worked out at 151 nM.

Molecule B11 gave a Kd of 45.5 nM.

On to B12, for which binding was put at a Kd of 12.9 nM.

B13 displayed a Kd of 431 nM.

B14 displayed a dissociation constant (Kd) of 75.8 nM.

B15 showed a Kd of 15.2 nM.

In turn, B16 returned a dissociation constant (Kd) of 48.5 nM.

Take B17: the Kd was determined as 4.54 nM.

For the molecule B18, the Kd came to 93 nM.

Regarding B19, the Kd worked out at 113 nM.

The molecule B20 registered a Kd of 8.45 nM.
